What was measured:
[1] = target: HLA-A*02:01 on T2 cells alone (no peptide added) (human); experiment: flow cytometry, HLA-A2 staining of T2 without peptide
[2] = target: HLA-A2 on MAC-1 and MAC-2A cells (Homo sapiens), A*02:0; experiment: flow cytometry on MAC-1 cells, HLA-A2 staining; isotype control 93.6
[3] = target: HLA-A2 on MAC-1 and MAC-2A cells (Homo sapiens), A*02:0; experiment: flow cytometry on MAC-2A cells, HLA-A2 staining; isotype control 86.2
[4] = target: 017-mut1 peptide (…)/HLA-A*02:01 complex on T2 cells (human); experiment: flow cytometry, HLA-A2 staining of T2 pulsed with peptide A1 (T2 stabilisation)
[5] = target: 017-mut2 peptide (…)/HLA-A*02:01 complex on T2 cells (human); experiment: flow cytometry, HLA-A2 staining of T2 pulsed with peptide A2 (T2 stabilisation)
[6] = target: 017-mut3 peptide (…)/HLA-A*02:01 complex on T2 cells (human); experiment: flow cytometry, HLA-A2 staining of T2 pulsed with peptide A3 (T2 stabilisation)
[7] = target: 017-mut5 peptide (…)/HLA-A*02:01 complex on T2 cells (human); experiment: flow cytometry, HLA-A2 staining of T2 pulsed with peptide A5 (T2 stabilisation)
[8] = target: 017-mut7 peptide (…)/HLA-A*02:01 complex on T2 cells (human); experiment: flow cytometry, HLA-A2 staining of T2 pulsed with peptide A7 (T2 stabilisation)
[9] = target: 017-mut8 peptide (…)/HLA-A*02:01 complex on T2 cells (human); experiment: flow cytometry, HLA-A2 staining of T2 pulsed with peptide A8 (T2 stabilisation)
[10] = target: 017-mut9 peptide (…)/HLA-A*02:01 complex on T2 cells (human); experiment: flow cytometry, HLA-A2 staining of T2 pulsed with peptide A9 (T2 stabilisation)
[11] = target: T2+FoxP7-G10 (Homo sapiens), A*02:0; experiment: flow cytometry, HLA-A2 staining of T2 pulsed with peptide G10 (T2 stabilisation)
[12] = target: Foxp3-7 peptide/HLA-A*02:01 complex on the cell surface (human); experiment: flow cytometry, HLA-A2 staining of T2 pulsed with the wild type Foxp3-7 peptide (T2 stabilisation)
[13] = target: HLA-A2 on MAC-1 and MAC-2A cells (Homo sapiens), A*02:0; experiment: flow cytometry on MAC-1 cells, isotype control of BB7
[14] = target: HLA-A2 on MAC-1 and MAC-2A cells (Homo sapiens), A*02:0; experiment: flow cytometry on MAC-2A cells, isotype control of BB7

Substance | Median:FITC-A [1] | Median:FITC-A [2] | Median:FITC-A [3] | Median:FITC-A [4] | Median:FITC-A [5] | Median:FITC-A [6] | Median:FITC-A [7] | Median:FITC-A [8] | Median:FITC-A [9] | Median:FITC-A [10] | Median:FITC-A [11] | Median:FITC-A [12] | Median:FITC-A [13] | Median:FITC-A [14]
BB7 (antibody) | 6940 | 35000 | 44000 | 29600 | 11200 | 35100 | 10400 | 18600 | 16500 | 10400 | 34100 | 18000 | – | –
mIso (antibody) | – | – | – | – | – | – | – | – | – | – | – | – | 93.6 | 86.2

Source: patent US20190284262A1
